Experimental findings from article PMC5779224 (2017) are described below.

Test [1] has as its target T1, AnkB_MBD R1 charge reversal mutant ('EAAE') (human, UniProt Q01484-2 28-827, 37RAAR40 to 37EAAE40).
T1 sequence: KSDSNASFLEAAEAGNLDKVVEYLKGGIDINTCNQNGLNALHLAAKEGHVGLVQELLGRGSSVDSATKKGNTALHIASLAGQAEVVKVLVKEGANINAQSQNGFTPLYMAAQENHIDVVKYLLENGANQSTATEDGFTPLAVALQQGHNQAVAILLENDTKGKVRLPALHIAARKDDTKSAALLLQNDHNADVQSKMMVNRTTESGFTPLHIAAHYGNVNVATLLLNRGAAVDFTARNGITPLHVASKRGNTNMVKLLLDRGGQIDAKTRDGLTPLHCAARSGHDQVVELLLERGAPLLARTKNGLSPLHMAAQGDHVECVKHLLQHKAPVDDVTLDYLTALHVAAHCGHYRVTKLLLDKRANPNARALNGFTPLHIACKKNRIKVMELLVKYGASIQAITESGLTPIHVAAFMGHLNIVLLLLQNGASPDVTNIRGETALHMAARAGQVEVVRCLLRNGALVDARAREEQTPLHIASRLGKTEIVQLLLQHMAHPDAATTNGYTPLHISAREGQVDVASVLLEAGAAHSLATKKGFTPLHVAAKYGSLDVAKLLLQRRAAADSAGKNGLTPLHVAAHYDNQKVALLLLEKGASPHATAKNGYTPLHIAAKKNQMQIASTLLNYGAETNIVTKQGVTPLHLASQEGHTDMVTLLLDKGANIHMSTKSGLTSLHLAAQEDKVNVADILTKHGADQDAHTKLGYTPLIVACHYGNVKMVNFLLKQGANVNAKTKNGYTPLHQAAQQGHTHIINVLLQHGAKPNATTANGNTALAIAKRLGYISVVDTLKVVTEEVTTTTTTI
In words: FP.

Test [2] addresses T2, AnkG 38–855 (AnkG MBD-AI-c protein; MBD + partial AI-c) (rat, UniProt O70511-1 38-855).
T2 chain: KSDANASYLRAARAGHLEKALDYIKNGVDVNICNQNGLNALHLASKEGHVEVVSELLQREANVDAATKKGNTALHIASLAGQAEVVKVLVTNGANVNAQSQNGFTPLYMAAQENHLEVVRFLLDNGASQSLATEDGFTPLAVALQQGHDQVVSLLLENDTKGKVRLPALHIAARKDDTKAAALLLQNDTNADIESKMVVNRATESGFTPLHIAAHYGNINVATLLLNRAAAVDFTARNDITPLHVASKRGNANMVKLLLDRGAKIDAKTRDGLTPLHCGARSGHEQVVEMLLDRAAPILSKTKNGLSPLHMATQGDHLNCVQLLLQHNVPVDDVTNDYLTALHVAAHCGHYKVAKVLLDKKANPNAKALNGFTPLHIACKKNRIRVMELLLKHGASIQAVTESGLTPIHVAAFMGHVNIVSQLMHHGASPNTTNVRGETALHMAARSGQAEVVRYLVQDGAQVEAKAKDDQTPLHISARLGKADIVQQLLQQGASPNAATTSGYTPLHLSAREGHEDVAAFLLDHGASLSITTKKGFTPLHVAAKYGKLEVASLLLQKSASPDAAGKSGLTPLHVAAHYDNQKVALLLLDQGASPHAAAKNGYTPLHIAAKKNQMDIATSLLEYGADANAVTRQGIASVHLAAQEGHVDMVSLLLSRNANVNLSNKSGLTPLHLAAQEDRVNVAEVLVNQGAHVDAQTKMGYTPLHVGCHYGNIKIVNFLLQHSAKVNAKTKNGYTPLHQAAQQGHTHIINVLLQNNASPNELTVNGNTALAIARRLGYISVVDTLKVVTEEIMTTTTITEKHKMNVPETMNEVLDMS
In words: ITC. Background: In ITC the heat of successive injections is recorded.

Test [3] concerns the target T3, AnkG 38–903 (MBD + AI-c + AI-b) (rat, UniProt O70511-1 38-903).
T3 chain: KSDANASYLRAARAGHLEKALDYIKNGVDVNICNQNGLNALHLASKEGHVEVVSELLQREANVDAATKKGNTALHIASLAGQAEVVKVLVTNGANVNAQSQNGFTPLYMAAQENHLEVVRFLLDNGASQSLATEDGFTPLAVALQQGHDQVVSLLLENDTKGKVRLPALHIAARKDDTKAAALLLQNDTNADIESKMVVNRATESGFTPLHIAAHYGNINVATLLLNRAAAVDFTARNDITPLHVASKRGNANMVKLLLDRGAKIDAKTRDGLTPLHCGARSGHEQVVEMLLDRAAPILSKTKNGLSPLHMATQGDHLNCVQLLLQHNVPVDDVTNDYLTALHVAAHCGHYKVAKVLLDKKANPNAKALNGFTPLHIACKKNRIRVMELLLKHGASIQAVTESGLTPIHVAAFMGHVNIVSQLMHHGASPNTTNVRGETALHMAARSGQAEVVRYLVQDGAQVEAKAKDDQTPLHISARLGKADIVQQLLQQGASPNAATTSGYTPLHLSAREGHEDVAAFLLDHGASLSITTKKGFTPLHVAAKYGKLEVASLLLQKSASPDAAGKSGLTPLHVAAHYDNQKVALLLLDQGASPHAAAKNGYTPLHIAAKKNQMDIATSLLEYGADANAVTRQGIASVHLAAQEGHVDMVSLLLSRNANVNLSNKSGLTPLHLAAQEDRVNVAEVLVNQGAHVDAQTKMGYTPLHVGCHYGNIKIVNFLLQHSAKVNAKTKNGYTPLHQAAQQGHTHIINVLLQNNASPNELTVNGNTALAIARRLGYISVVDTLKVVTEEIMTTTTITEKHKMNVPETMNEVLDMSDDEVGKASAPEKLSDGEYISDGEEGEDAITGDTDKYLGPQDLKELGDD
In words: ITC; too weak to be reliably fit.

Test [4] concerns the target T4, AnkB 28–847 (MBD + partial AI-c) (human, UniProt Q01484-2 28-847).
T4 chain: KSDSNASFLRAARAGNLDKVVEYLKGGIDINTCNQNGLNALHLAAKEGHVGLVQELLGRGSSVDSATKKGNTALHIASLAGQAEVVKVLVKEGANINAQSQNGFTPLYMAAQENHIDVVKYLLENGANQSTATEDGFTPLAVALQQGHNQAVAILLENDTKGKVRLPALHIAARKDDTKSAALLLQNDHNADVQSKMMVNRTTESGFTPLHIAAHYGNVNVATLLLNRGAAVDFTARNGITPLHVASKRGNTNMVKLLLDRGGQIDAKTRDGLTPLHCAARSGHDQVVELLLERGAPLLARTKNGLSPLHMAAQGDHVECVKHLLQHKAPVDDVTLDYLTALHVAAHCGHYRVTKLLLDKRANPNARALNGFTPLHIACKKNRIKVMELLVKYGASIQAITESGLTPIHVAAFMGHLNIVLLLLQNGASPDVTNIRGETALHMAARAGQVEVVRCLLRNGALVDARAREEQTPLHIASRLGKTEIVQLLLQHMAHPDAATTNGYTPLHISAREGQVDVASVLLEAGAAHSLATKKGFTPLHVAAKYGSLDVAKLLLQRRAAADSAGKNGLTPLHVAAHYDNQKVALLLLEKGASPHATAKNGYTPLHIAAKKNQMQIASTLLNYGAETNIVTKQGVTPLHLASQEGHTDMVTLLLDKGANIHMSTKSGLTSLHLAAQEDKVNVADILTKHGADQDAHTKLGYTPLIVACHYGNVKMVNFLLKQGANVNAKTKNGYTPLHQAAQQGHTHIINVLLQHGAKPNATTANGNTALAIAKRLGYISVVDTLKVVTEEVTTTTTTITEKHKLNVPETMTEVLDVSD
Briefly: ITC.

Test [5] deals with T5, AnkB_MBD (AnkB ANK repeats only, aa 28–827) (human, UniProt Q01484-2 28-827).
T5 chain: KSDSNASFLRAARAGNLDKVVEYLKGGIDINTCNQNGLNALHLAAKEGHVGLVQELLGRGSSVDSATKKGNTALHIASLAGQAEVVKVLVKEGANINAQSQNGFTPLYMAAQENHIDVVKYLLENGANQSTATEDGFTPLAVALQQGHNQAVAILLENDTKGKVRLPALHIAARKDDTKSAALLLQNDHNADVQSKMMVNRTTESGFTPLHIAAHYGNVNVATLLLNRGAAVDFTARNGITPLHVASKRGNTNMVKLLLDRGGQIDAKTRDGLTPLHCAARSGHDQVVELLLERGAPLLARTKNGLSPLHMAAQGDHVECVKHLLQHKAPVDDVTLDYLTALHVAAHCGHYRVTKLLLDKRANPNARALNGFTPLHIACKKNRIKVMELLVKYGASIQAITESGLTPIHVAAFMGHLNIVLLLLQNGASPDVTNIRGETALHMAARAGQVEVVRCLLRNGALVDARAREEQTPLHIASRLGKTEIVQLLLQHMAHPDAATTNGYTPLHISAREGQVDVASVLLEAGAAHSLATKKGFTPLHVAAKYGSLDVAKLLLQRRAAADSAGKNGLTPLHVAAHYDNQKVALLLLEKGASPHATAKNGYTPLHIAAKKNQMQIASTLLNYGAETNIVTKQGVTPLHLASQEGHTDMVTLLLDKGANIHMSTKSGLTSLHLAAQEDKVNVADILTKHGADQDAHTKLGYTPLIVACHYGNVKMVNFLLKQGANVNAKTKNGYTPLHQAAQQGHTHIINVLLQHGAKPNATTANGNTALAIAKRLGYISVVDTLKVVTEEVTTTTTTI
Briefly: ITC.

In another test the target is T6, AnkB_MBD Asn595Ala (human, UniProt Q01484-2 28-827, Asn595Ala).
T6 sequence: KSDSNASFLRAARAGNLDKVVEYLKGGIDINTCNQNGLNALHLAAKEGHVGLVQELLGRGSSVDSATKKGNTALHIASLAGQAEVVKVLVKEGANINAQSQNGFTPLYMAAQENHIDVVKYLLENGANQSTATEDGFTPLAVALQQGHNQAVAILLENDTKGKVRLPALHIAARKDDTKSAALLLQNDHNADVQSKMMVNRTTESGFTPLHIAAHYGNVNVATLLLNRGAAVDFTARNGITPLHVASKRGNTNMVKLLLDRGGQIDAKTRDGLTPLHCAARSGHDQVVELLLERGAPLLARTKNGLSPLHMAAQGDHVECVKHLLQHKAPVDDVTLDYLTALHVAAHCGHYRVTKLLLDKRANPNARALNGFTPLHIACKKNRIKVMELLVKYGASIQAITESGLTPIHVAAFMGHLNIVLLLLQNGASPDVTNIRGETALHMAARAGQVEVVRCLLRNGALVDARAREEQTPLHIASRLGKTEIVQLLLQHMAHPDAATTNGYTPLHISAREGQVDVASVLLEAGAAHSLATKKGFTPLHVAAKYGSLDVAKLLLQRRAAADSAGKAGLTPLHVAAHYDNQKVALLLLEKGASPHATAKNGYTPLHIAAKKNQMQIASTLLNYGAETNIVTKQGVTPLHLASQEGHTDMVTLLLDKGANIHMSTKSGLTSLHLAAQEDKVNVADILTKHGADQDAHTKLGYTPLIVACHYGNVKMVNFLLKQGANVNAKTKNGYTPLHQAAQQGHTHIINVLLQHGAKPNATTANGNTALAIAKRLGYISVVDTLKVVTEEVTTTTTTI
Briefly: ITC.

Test [6] addresses T5, AnkB_MBD (AnkB ANK repeats only, aa …). Briefly: ITC.

Where two headings read alike, the source gives them in different places.

For the molecule HPPIVSEEDISVG [AnkB_AI-a peptide (aa 1623–1635)], the equilibrium dissociation constant (Kd) (in general, a measure of binding affinity in units of concentration) in test [1] was determined as 43800 nM.

B1: E-cadherin (aa 734–884) (domain or fragment)
chain: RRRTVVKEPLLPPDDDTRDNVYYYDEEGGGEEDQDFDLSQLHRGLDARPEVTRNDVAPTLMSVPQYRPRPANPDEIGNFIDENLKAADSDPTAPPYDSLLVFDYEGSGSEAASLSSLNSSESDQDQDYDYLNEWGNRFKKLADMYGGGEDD
As for B1, the Kd is 610 nM in test [2], about 45000 nM in test [3] and 780 nM in test [4].

In test [5], CADQYWNEVAVIDAIPLAATEHDTMLEMSDMQVWSAGDHPPIVSEEDIS [AnkR/B_CT Chimera] showed a Kd of 470 nM.

As to TEKHKLNVPETMTEVLDVSDEEGDD (domain or fragment) [AnkB_AI-c (aa 828–852)], the results for the Kd (in the test with AnkB_MBD Asn595Ala; in test [6]) were 2400 nM and 360 nM, respectively.
